The source of these data is patent publication US20180064827.

Common to all, as to assay: cell_activity
One series relates to ZFN 63194 (synthetic). Conditions: pair with 63195, Hepa1-6, 40 ug/mL.
For the next series, the system named is ZFN 63341 (synthetic). Conditions: pair with 63342, Hepa1-6, 40 ug/mL.
The subject of another series is ZFN 60287 (synthetic). Conditions: pair with 60289, K562.
The subject of another series is ZFN 63236 (synthetic). The settings on record: pair with 63238, Hepa1-6, 40 ug/mL.
The subject of another series is ZFN 63374 (synthetic). Conditions: pair with 63375, Hepa1-6, 40 ug/mL.
For a further series, the system named is ZFN 64552 (synthetic). The settings on record: pair with 66083 or 66084, 5 ug/mL.
For the next series, the system named is ZFN 66075 (synthetic). The settings on record: pair with 64555, 5 ug/mL.
A further series has as its system ZFN 66079 (synthetic). The settings on record: pair with 64555, 5 ug/mL.
Another series deals with ZFN 63238 (synthetic). The settings on record: pair with 63236, Hepa1-6, 40 ug/mL.
A further series has as its system ZFN 64555 (synthetic). The settings on record: pair with 66075, 5 ug/mL.
The subject of another series is ZFN 63410 (synthetic). The settings on record: pair with 63411, Hepa1-6, 40 ug/mL.
The next series has as its system ZFN 60502 (synthetic). Conditions: pair with 64066, HepG2, 40 ug/mL.
The test system of another series is ZFN 64080 (synthetic). The settings on record: pair with 60501, HepG2, 40 ug/mL.
Another series relates to ZFN 67458 (synthetic). The settings on record: pair with 60501, HepG2, 40 ug/mL.
A further series concerns ZFN 63195 (synthetic). Conditions: pair with 63194, Hepa1-6, 40 ug/mL.
The subject of another series is ZFN 63375 (synthetic). Conditions: pair with 63374, Hepa1-6, 40 ug/mL.
For another series, the system named is ZFN 63342 (synthetic). The settings on record: pair with 63341, Hepa1-6, 40 ug/mL.
The next series deals with ZFN 63411 (synthetic). The settings on record: pair with 63410, Hepa1-6, 40 ug/mL.

“AAGGACTTGATATGAGAGGGTCCAACTT (double strand) [mouse KLKB1 63194 site]”: the activity with ZFN 63194 (synthetic) was found to be 89.8 % indel. In the series with ZFN 63341 (synthetic), “TTGACTTTGAAGGGGAAGAACTGAATGT (double strand) [mouse KLKB1 63341 site]” returned an activity of 96.8 % indel. Regarding “CGGAGCTCACCCTGGCCGAGTTGAGGCA (double strand) [human PCSK9 60287 site]”, in the series with ZFN 60287 (synthetic), the activity worked out at 73.1 % indel. Sequence “CCGCTGAGTTCACAGGTTGCCCCATGGA (double strand) [mouse KLKB1 63236 site]” gave an activity in the series on ZFN 63236 (synthetic) of 92.5 % indel.

The sequence “GGGAGCCATCTGTGGATAACCTTAAGGA (double strand) [mouse KLKB1 63374 site]” returned an activity in the series on ZFN 63374 (synthetic) of 93.7 % indel.

As to “ACTTGCTGCATATGTGGCTAAAGCAATA (double strand) [M. mulatta HAO1 left]”, the activity was 80.6 % indel in the series with ZFN 64552 (synthetic), 86.9 % indel with ZFN 66075 (synthetic) and 84.2 % indel with ZFN 66079 (synthetic). In the case of “GCAGAGTGCTGGAAAATATCCATGGGGC (double strand) [mouse KLKB1 63238 site]”, the activity with ZFN 63238 (synthetic) was determined as 92.5 % indel. “TCCCAGCTGATAGATGGGTCTATTGCTT (double strand) [M. mulatta HAO1 right]” registered an activity with ZFN 64555 (synthetic) of 86.9 % indel. In turn, “TCTTTAGGGGAGTGGCCATGGCAGGTCA (double strand) [mouse KLKB1 63410 site]” gave an activity in the series on ZFN 63410 (synthetic) of 84.7 % indel. Take “CTGCCTTGCTGGACTGGTATTTGTGTCT (double strand) [human TTR 60502 site]”: the figures for the activity in the series on ZFN 60502 (synthetic), in the series with ZFN 64080 (synthetic) and in the series with ZFN 67458 (synthetic) were 37.3 % indel, 47 % indel and 47.6 % indel, respectively. Take “TTGTCGGTCTTAGAGATATTAAAGTTGG (double strand) [mouse KLKB1 63195 site]”: the activity in the series on ZFN 63195 (synthetic) worked out at 89.8 % indel. The sequence “TGCATGCCATAGGTGATCCTAGTTGGGG (double strand) [mouse KLKB1 63375 site]” came in with an activity in the series with ZFN 63375 (synthetic) of 93.7 % indel. “CTGCTCCTTGCACGAAGGTCACATTCAG (double strand) [mouse KLKB1 63342 site]” registered an activity with ZFN 63342 (synthetic) of 96.8 % indel. Turning to “TTCACTTGCAGGCTGACCTGCCATGGCC (double strand) [mouse KLKB1 63411 site]”, the activity with ZFN 63411 (synthetic) worked out at 84.7 % indel.
